Results from patent publication US20260258124A1 (CIMEIO THERAPEUTICS, published 2026).
Positions count from the first letter of the chain named.

B1: Dom (antibody, V domains shown)
VH: QVQLVQSGAEVRKPGASVKLSCKASGYTFTSYNMHWVRQAPGQGLEWMGVIYSGNGDTSYNQKFKGRVTLTRDTSTSTVYMELSSLRSEDTAVYYCARERDTRFGNWGQGTLVTVSA
VL: EIVLTQSPSSLSASVGDRVTITCRASESVDIYGNSFMHWYQQKPGKAPKLLIYLASNLESGVPSRFSGSGSGTDFTLTISSLQPEDFATYYCQQNNEDPYTFGQGTKLEIK
notes: IgG; also called VH3/VL1; HC3 LC1
B2: HC1 LC5 (antibody, V domains shown)
VH: B1 VH with R12K, L20V, L70M, R72T, V79A, S84R, R87T, E89D
VL: B1 VL with E1D, V3Q, L4M, S35A, N95A, D98E, Q104G
notes: IgG; also called VH1/VL5
B3: HC2 LC1 (antibody, V domains shown)
VH: B1 VH with Q6E, R12K, G44R, L70I, R72V, T74K, T76A, V79A
VL: B1 VL
notes: IgG; also called VH2/VL1
B4: Jungfrau (antibody, V domains shown)
VH: B1 VH with R12K, L20V, N55S, L70M, R72T, V79A, S84R, R87T, E89D
VL: B1 VL
notes: IgG; also called VH1.2/VL1
B5: Signalkuppe (antibody, V domains shown)
VH: B1 VH with R12K, L20V, L70M, R72T, V79A, S84R, R87T, E89D
VL: DIVMTQSPSTLSASVGDRVTITCRASESVDIYGSSFMHWYQQKPGQPPKLLIYLASNLESGVPSRFSGSGSGTEFTLTISSLEADDVATYYCQQNNEDPYTFGGGTKLEIK
notes: IgG; also called VH1/VL3; HC1 LC3
B6: Zumstein (antibody, V domains shown)
VH: B1 VH with R12K, L20V, L70M, R72T, V79A, S84R, R87T, E89D
VL: B1 VL with E1D, L4M, S10T, D74E, E85D
notes: IgG; also called VH1/VL2; HC1 LC2
B7: Aletschhorn (antibody, V domains shown)
VH: B1 VH with R12K, L20V, L70M, R72T, V79A, S84R, R87T, E89D
VL: EIVLTQSPSSLSASVGDRVTITCRASESVDIYGNSFMHWYQQKPGKAPKLLIYLASNLESGVPSRFSGSGSGTDFTLTISSLQPEDFATYYCQQNNEPPYTFGQGTKLEIKR
notes: IgG; also called VH1/VL1.14
B8: Alphubel (antibody, V domains shown)
VH: B1 VH with R12K, L20V, L70M, R72T, V79A, S84R, R87T, E89D
VL: B7 VL with N96K, P98D
notes: IgG; also called VH1/VL1.13
B9: Breithorn (antibody, V domains shown)
VH: B1 VH with R12K, L20V, L70M, R72T, V79A, S84R, R87T, E89D
VL: B7 VL with P98E
notes: IgG; also called VH1/VL1.15; VH1/LC1.15
B10: Castor (antibody, V domains shown)
VH: B1 VH with R12K, L20V, L70M, R72T, V79A, S84R, R87T, E89D
VL: B7 VL with N95E, P98D
notes: IgG; also called VH1/VL1.11
B11: Dent Blanche (antibody, V domains shown)
VH: B1 VH with R12K, L20V, L70M, R72T, V79A, S84R, R87T, E89D
VL: B7 VL with N34F, P98D
notes: IgG; also called VH1/VL1.6
B12: Dirruhorn (antibody, V domains shown)
VH: B1 VH with R12K, L20V, L70M, R72T, V79A, S84R, R87T, E89D
VL: B7 VL with N34Y, N96K, P98E
notes: IgG; also called VH1/VL1.18; VH1/VH1.18
B13: Finsteraarhor (antibody, V domains shown)
VH: B1 VH with R12K, L20V, L70M, R72T, V79A, S84R, R87T, E89D
VL: B7 VL with N95R, P98D
notes: IgG; also called VH1/VL1.10; VH1/LC1.10
B14: Grand Combin (antibody, V domains shown)
VH: B1 VH with R12K, L20V, L70M, R72T, V79A, S84R, R87T, E89D
VL: B7 VL with N95G, P98D
notes: IgG; also called VH1/VL1.9
B15: Lagginhorn (antibody, V domains shown)
VH: B1 VH with R12K, L20V, N55S, L70M, R72T, V79A, S84R, R87T, E89D
VL: B7 VL with N34E, P98E
notes: IgG; also called VH1.2/VL1.17
B16: Ludwigshöhe (antibody, V domains shown)
VH: B1 VH with R12K, L20V, L70M, R72T, V79A, S84R, R87T, E89D
VL: B7 VL with N34E, P98D
notes: IgG; also called VH1/VL1.7
B17: Nadelhorn (antibody, V domains shown)
VH: B1 VH with R12K, L20V, L70M, R72T, V79A, S84R, R87T, E89D
VL: B7 VL with N34Y, P98D
notes: IgG; also called VH1/VL1.8
B18: HC2 LC2 (antibody, V domains shown)
VH: B1 VH with Q6E, R12K, G44R, L70I, R72V, T74K, T76A, V79A
VL: B1 VL with E1D, L4M, S10T, D74E, E85D
notes: IgG; also called VH2/VL2
B19: HC2 LC3 (antibody, V domains shown)
VH: B1 VH with Q6E, R12K, G44R, L70I, R72V, T74K, T76A, V79A
VL: B5 VL
notes: IgG; also called VH2/VL3
B20: HC2 LC5 (antibody, V domains shown)
VH: B1 VH with Q6E, R12K, G44R, L70I, R72V, T74K, T76A, V79A
VL: B1 VL with E1D, V3Q, L4M, S35A, N95A, D98E, Q104G
notes: IgG; also called VH2/VL5
B21: HC3 LC2 (antibody, V domains shown)
VH: B1 VH
VL: B1 VL with E1D, L4M, S10T, D74E, E85D
notes: IgG; also called VH3/VL2
B22: HC3 LC3 (antibody, V domains shown)
VH: B1 VH
VL: B5 VL
notes: IgG; also called VH3/VL3
B23: HC3 LC5 (antibody, V domains shown)
VH: B1 VH
VL: B1 VL with E1D, V3Q, L4M, S35A, N95A, D98E, Q104G
notes: IgG; also called VH3/VL5
B24: HC5 LC2 (antibody, V domains shown)
VH: EVQLVQSGAEVKKPGESLKISCKGSGYTFTSYNMHWVRQMPGKGLEWMGVIYSGNADTSYNQKFKGQVTISADKSISTAYLQWSSLKASDTAMYYCARERDTRFGNWGQGTLVTVSA
VL: B1 VL with E1D, L4M, S10T, D74E, E85D
notes: IgG; also called VH5/VL2
B25: HC5 LC3 (antibody, V domains shown)
VH: B24 VH
VL: B5 VL
notes: IgG; also called VH5/VL3
B26: HC5 LC5 (antibody, V domains shown)
VH: B24 VH
VL: B1 VL with E1D, V3Q, L4M, S35A, N95A, D98E, Q104G
notes: IgG; also called VH5/VL5
B27: Liskamm (antibody, V domains shown)
VH: B24 VH
VL: B1 VL
notes: IgG; also called VH5/VL1; HC5 LC1

How the values were obtained:
[1] = molecular target: T1, human recombinant CD117 (c-Kit) from Sino Biological (Catalog No. 11996-H08H) (human, UniProt P10721 26-524); experiment: BLI Octet, IgG on anti-human Fc sensor, soluble CD117, 1:1 fit
T1 construct: also called soluble antigen
T1 sequence (P10721 26-524 limits assumed): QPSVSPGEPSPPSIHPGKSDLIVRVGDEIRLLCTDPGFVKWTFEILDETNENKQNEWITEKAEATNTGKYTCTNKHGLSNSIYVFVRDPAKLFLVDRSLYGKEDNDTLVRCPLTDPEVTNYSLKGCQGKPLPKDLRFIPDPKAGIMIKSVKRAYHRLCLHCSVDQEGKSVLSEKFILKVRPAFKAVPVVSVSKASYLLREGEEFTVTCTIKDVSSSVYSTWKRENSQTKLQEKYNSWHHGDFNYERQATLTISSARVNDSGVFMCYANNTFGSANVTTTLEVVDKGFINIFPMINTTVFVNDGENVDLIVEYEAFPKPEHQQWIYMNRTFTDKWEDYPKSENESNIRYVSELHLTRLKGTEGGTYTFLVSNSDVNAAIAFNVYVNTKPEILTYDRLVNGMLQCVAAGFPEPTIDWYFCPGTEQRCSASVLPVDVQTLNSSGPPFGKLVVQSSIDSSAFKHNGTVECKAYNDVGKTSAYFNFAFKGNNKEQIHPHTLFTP
Procedure: IgG antibodies were immobilized on biosensors using suitable capture surfaces and binding of soluble antigen to immobilized antibodies was monitored by BLI (Octet). The resulting sensorgrams were analyzed using the supplied software (Fortebio). As antigen human recombinant CD117 (c-Kit) from Sino Biological was used (Catalog No. 11996-H08H, Lot #LC14SE0812). As a pre-experiment a series of experiments was performed to optimize assay parameters. The following parameters were selected:
(§1) In the main experiment kinetic assays were performed by first capturing IgG using anti-human Fc biosensors. The mAb capture biosensors were then submerged in wells containing different concentrations of antigen (association stage) followed by a dissociation step in running buffer. To allow for double reference correction, IgG-captured sensors were dipped into wells containing only buffer and blank sensors were also dipped into wells containing the antigen. This referencing provided a means of compensating for both the natural dissociation of the capture IgG and non-specific binding of the antigen to the sensor surface. Steps were performed at 25° C. at a constant shaking of 1000 rpm. New sensors were used for each sample. Dissociation rate constants (Kd) were calculated using the ForteBio Data Analysis software. All consumables used were those recommended by ForteBio.
(§2) All samples were diluted in freshly prepared running buffer. Antibody variants were immobilized onto the surface of a series of biosensors using the capture methods described. Antigen was passed over the surface to generate a binding response. Binding data for the IgG:antigen interactions were collected at 25° C. on the biosensors. A dilution series of the antigen was used in the association step, in order to fit results globally and get the best values for ka, kd, and KD. The response data for the binding of antigen to the surface immobilized IgG were fitted to a 1:1 binding model. HC0 LC0 refers to murine SR-1.

[2] = molecular target: T1, human recombinant CD117 (c-Kit) from …; experiment: BLI Octet, set-up as in Example 2
Procedure: as §1, §2

Binder | Kd [1] | koff [1] | kon [1] | Kd [2]
B1 | 1.96 nM | 0.000971 s⁻¹ | 495000 M⁻¹ s⁻¹ | 
B2 | 8.79 nM | 0.00552 s⁻¹ | 628000 M⁻¹ s⁻¹ | 
B3 | 5.16 nM | 0.00206 s⁻¹ | 399000 M⁻¹ s⁻¹ | 
B4 |  |  |  | 1.3 nM
B5 | 1.09 nM | 0.000727 s⁻¹ | 670000 M⁻¹ s⁻¹ | 
B6 | 1.16 nM | 0.000668 s⁻¹ | 576000 M⁻¹ s⁻¹ | 
B7 |  |  |  | 1.4 nM
B8 |  |  |  | 1.4 nM
B9 |  |  |  | 0.4 nM
B10 |  |  |  | 2.2 nM
B11 |  |  |  | 1.2 nM
B12 |  |  |  | 0.56 nM
B13 |  |  |  | 4 nM
B14 |  |  |  | 1.3 nM
B15 |  |  |  | 0.44 nM
B16 |  |  |  | 0.2 nM
B17 |  |  |  | 0.2 nM
B18 | 10.8 nM | 0.00483 s⁻¹ | 449000 M⁻¹ s⁻¹ | 
B19 | 8.03 nM | 0.00458 s⁻¹ | 571000 M⁻¹ s⁻¹ | 
B20 | 33.8 nM | 0.0214 s⁻¹ | 632000 M⁻¹ s⁻¹ | 
B21 | 3.09 nM | 0.00178 s⁻¹ | 577000 M⁻¹ s⁻¹ | 
B22 | 3.28 nM | 0.00216 s⁻¹ | 658000 M⁻¹ s⁻¹ | 
B23 | 26.2 nM | 0.0187 s⁻¹ | 715000 M⁻¹ s⁻¹ | 
B24 | 3.61 nM | 0.0017 s⁻¹ | 472000 M⁻¹ s⁻¹ | 
B25 | 3.67 nM | 0.00216 s⁻¹ | 589000 M⁻¹ s⁻¹ | 
B26 | 29.4 nM | 0.0184 s⁻¹ | 626000 M⁻¹ s⁻¹ | 
B27 | 1.92 nM | 0.000961 s⁻¹ | 500000 M⁻¹ s⁻¹ | 
